Measurements published in US20080187528A1 (FUNCTIONAL GENETICS, published 2008).

Key:
[1] = target: biotinylated peptide Bio-… containing 11 amino acid residues from the N terminus of the Ebola VP40 (Ebola virus (EBOV))
[2] = target: T1, truncated (31-326) Ebola VP40 (Ebola virus (EBOV), UniProt Q05128 31-326); assay: Far Western
T1 sequence: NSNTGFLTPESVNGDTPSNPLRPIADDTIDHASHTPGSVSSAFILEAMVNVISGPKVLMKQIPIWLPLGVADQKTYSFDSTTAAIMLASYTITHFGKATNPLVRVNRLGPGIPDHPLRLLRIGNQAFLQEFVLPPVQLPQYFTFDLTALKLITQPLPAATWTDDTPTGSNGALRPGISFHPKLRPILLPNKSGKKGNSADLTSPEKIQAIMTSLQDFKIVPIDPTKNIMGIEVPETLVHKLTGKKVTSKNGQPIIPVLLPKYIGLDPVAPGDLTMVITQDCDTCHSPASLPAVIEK

B1: purified TSG101 protein that contains only the UEV domain (other)
chain: AVSESQLKKMVSKYKYRDLTVRETVNVITLYKDLKPVLDSYVFNDGSSRELMNLTGTIPVPYRGNTYNIPICLWLLDTYPYNPPICFVKPTSSMTIKTGKHVDANGKIYLPYLHEWKHPQSDLLGLIQVMIVVFGDEPPVFSRP
**Q.** Which results are given for B1?
**A.** Kd [1]: 2000 nM; binding result [2]: no binding
